Experiment: soluble on expression in E. coli; label from the status in PepcDB or PDB records

Soluble on expression in E. coli, not soluble:
MGSDKIHHHHHHMTTLDALRVFVEVVRAGSFTAAARRLSISKSLASKRVAALEDELSVNLLNRSTRSLRLTEAGQIYYEHGLRVIEELQSAEAQVQSVTSQPRGQLKVSAQVSFGFMYLAAPTTAFMRRYPDVSVEILLEDQRFEPIDDSVDLAIRMGPLPPSSLVSRPLCKVVYGLYAAPDYLARAGRPLHPRDIADYDTVFYGNYDLGAHWRFSLNGQPLDIEPNSRLVINNLLGVVEAAKSGFGLAYLPTFAARAAVEEGQLIPLLQPYWNEHGSMLVLFRSRKYLPDKTRAYLDFITDWFREHLAL, MGSDKIHHHHHHMTTTTKKTAERLIKKYPNRRLYDTETSTYITLTDVKQLVLDQEDFKVIDAKSNEDLTRAILLQIILEEESGGLPMFSSSMLSQIIRFYGHAMQGMMGTYLEKNIQAFIDIQAKLADQSKNLYEGKAMNPEVWSQFMNMQAPMMQGMMTSYIEQSKNMFVQMQEQMQNQAKSMFATFPFTPGGAVNVAGGGNAPASPQGNPQGNPEPEKK, MGSDKIHHHHHHMTTTYPDFLGNSSLQTDTEHWEMEGGAQEVSVTYVLDTSVLLSDPLSLTRFAEHDVVLPIVVITELEAKRHHPDLGFFARQALRMLDELREIHGDLSKPLPIGDEGGHIHVELNHQNTGSLPVGFRLGDNDTRILAVAKNLQEEGHNVVLVSKDLPMRIKASASGIAAQEYRAALARDRGYTGMTHANITDDQLSELYDTGEVRIEELEKLPVNHGFTLKSNSGSALGRMNSDKIIELVPGDQQVFGISGRSAEQRVAIDLLNDDAVGIVSIGGPAGTGKSALALCAGLEAVMERRIQRKIIVFRPLFAVGGQELGYLPGDQEEKMGPWAQAVFDTLSSMVSQNIIDEALSRGLIEVLPLTHIRGRSLHDAFVIVDEAQSLERNVLLTMLSRIGQNSRVVLTHDVAQRDNLRVGRYDGIVSVVEALKDHELFGHITLQRSERSRIAELVTQVLDAPSL, MGSDKIHHHHHHMTVAQLLIPQMYSSKSTGEAVGRHPLNFYESPSWFTTELLRHVRLSGVVGEPCVGMGAIASLLSVWPYTKQMWTNDIDPHKSANYQMDATLSESWAKFPDCDWICTNPPYSEFAAPIIKNAYCKAHVGVAAFLLTSFLEPCDDRADFLQQHPPSLVLIMPRFCFRKDKRGTRWATDNVTISCFVWDKRATGQQIIVRPKSAIAGFYKNPEQAISQERAEKIVRAIAKGEL, MGSDKIHHHHHHMTVIDLSALDPPDLVETLDFEAAYQYKLQHFKSIYPDWTAALESDPVVKLIELAAYDEVRFRARVNDAGRAVLLAYSTGADLEHLAVLWNLQRETVDPGDPEAHPPVPATRERDERLRLRTQMGIERSSTAGPFGAYRSLAMDASPDVADVRVDRPEAGVVRVVVKSYSNGGVASAALLDTVRRALSPEDRRPLNDSLLVVAARPVNYAIVADVYIGRGPDPGVVLAARRQDLDIAVAAGEALRVGMPRSAVTGALHPKASGVVRVDLKLPAADVVCAIDQFARCTSIVLNPKVADDD, MGSDKIHHHHHHMTVLILTNPFDITADDVILRLTERGVPVVRLDPADFPQQVVLHSEIGGNGWTGTLTTPHRILDLSTVTGIWYRRPRKFRLPAQMSQAEYEFAATEARRGFGGIINSLTGWINHPSAIGRAEYKPYQLHHAVQAGLNVPRTLITNDPKQAKGWCARVGDVVYKPLSAPSWLENGDTYVVFTTPITPDQWGDPAIGRTAHMFQQRLDKEFEVRLTMVDGKAFPAAIHAHSDAARIDWRSDYDALTYSIPTVPQRVLTGARDLLRRLHLRYAALDFIVSPDGRWHFLEVNPNGQYGWIEEHTGQPISDAIADALTRKEN, MGSDKIHHHHHHMVAVPQAHPLSVAEYLQFEAASEIKHEYRAGEVYAMADITDVHNTIVGNWVALIRSHVRGSSDRVYCSAMQVWLQQANCIYYPDLLVTCDPRDQETVNYKRFPKLIVEVLSPSTEAFDRGDKFADYQTLETLEEYVLISTSRQRVDCFRRSLEGVWTLQFYLPNAEVLPLRSIGLEVRLSDLYEDVTLPAPPSIPESLEESR, MGSDKIHHHHHHMVDCDRIDRLIAAVPPALALRAGLDLGIFTRLGGDAATADSLGAALKVEPDRLSRLLYALASIDLLEVKDGQFRNGAEASAFLDASKPTYRGGDHALLRELWGADLLTAESLRQNRPAALHDFSEAGPEAAAAFSRMLAPGGVIFGRHLAREIDLSAIGSVIDIGGGAGTILVGLRERRRQIAATLMELPTVAAVAPAILSEYGADDVIVEEGDITVAPSIGRHDLAILKAVVQVLPPDQARNAILNAARCLTPGGEIAIAGWGVVDDDRLGPSEGVFLNLTFLNLYRHGESYTEGQYRAWMTEAGFRNISRSRLTDGTALFRGRLTD, MGSDKIHHHHHHMVDVKRNIFLILDDRELTSEEVRSLVGTRRYSEISLKRRSLLEHLRAALPAWAQTRLVHIKDNNDVVALRNVLESCGEQSPALVIAGRAGFLQPERLTQLIERLPYAEEDFTDRLYRPLLVYLKSVHDLHSCWQQFEAEPLHLWPKAWQDCQRLESLEPLDLARIRDFLTFTGGATATRHFNEVLIDNYYYTKRSSDKQKMLAEYSFYGLAPESMRPWLIQPFEFREEGGGASYKMLRYFLADAALQWVHGAFDRDTFMAFIERLLFFIAERPRKACAREESAAVARDMFVTKVSARIEAFLAMEEGRRINALAASASPMLDVQAMLKRYLALYQRHERAFAFDYMVVGHGDPCFSNVLYDQQRYLLKLIDPKGAATEADLWTNPLYDLCKISHSVLGDYDFINNGLYRVGFTDANALKLAFSHRNHDDLKPIFSSLVGKMGMDYRIMRLGEASLFLSMLPLHIDYPNKILAFMLKAHEILREVEGEARV, MGSDKIHHHHHHMVKDKNDVGPKTVAILGAGGKMGARITRKIHDSAHHLAAIEIAPEGRDRLQGMGIPLTDGDGWIDEADVVVLALPDNIIEKVAEDIVPRVRPGTIVLILDAAAPYAGVMPERADITYFIGHPCHPPLFNDETDPAARTDYHGGIAKQAIVCALMQGPEEHYAIGADICETMWSPVTRTHRVTTEQLAILEPGLSEMVAMPFVETMVHAVDECADRYGIDRQAALDFMIGHLNVEIAMWFGYSPKVPSDAALRLMEFAKDIVVKEDWREALNPAKVKQAAELIAGK, MGSDKIHHHHHHMVKRMHCNINLKYGVIMKKDCYTLRISLKPGFINAEQLKAIAYVIENFGDNKAHITTRQGIEFKISPEHLEEVEKILNNVGLNLGSTGNRVRQVVSCIGLECYNAIGDSVSLARRIHEEFEGVWVPRKVKINVSGCPNSCTFHRFCDIGICYRYKITINKEICTNCGKCKDFCDLNAIDWERKIIKDNCTGEGKCTGLCNAFKAERVISIFVGGKGGRIYKEGKHLIDLKNEDDVLFVIDELISLYAKFGKGRMADFVENYGIENLRNNIKELIK, MGSDKIHHHHHHMVKSANLLHVSQPAVTKTVRELEEILGVSLFEREGRGIRITRYGEVFLRHAGATLAALRHAVDSVSQEAAKAGPPVRVGALPTVATRIMPQAMTAFLAENTGSPIKIVTGDNSVLLEQLRIGELDLVVGRLAAPEKMAGFSFEHLYSEPVVFVVRAGHPLLTGETAPFERMRDFPVLMPTRNSIIRPLVDYFLIANGVATLPNQIETVSDSFGRAFLKISDAVWVISEGVVAGDIAEGTICALPIDCSPTRGPVGLTVRADAMATLPQSLLMQAIRDAAAAIMP, MGSDKIHHHHHHMVQREKNVVNEQEIELIIGNSNSNFSGVTSTMLQVLSHEQSLINLRVMGKHHLPDESLSISFWQVANLSTKPLPKGKFRIFHARRVDEMIQALLLKYVFRVKLKIVFSSAAQRYRSGFTLWLTDRMDAVLAMCKASASYLHRKPDAIIYHGVKTDIYLPATDKSKAWQSLGLLPENSAKGKKGIAILGRVRKQKGVHLFVESCIDILKDRPDYTAVIVGSISSSNESFVNELQSKIDQAGLTERIVFAGEQNFADIPKIFSSLSLVVALSENEGFGLTILEAMSSGAAVLASEAGAWPEVVRQGVDGYVVPINDLDAVTEKMSLLLADEEKLMQMGRDGRERVLEHYSVEREAKELVTFFRSLM, MGSDKIHHHHHHMVRDIDKTTSLHLNNEAQFLCFRLDAEKDAQLYGMNIFKIREIIHYDGEVTEILGGSDGVMLGFLSVRGESIPLVDVKRWLHYNANDPSRDLKECSVKDDHNLVIVCHFSNHSIALKVLKIERIIHKNWTEISAGDKQGINEEGKLSAITRFDEERVVQILDVEKMISDVFPSLKDLDDLTLRCIEAIQSQKLILIAEDSLSALKTLEKIVQTLELRYLAFPNGRELLDYLYEKEHYQQVGVVITDLEMPNISGFEVLKTIKADHRTEHLPVIINSSMSSDSNRQLAQSLEADGFVVKSNILEIHEMLKKTLS, MGSDKIHHHHHHMVSRSPFESFQWKSDIFNCESTDIDNFYLLLEQEMTRLGMVEKNLGEVGKYKVSLYQSPAAKSGLPSLLISAGFHGEESAGPWGLLHFLSEASADLFERVNLSLLPLVNPTGFSRGHRFNKYGENPNRGFVFENGKPKANEHTSVEGKLLLDHAQLLIAACRDGILTCHEDVLSREAYVYSFEPSQVPGRFSLDLRDTLGGYFPIAVDGEIDACPVKDGLIFNHFDTSFEACLVRSGARVGACTETPALQNFDQRVLANSAAMTHFLALCAPLCD, MGSDKIHHHHHHMVSWVRGATKSLLGCSENSRRTKGNDMAVIFKGIPSIGNGLTDDTVLWRYLDTAKFLDLLHNRTLFFCRGDRFADKYEGAFTESIKHAIEEAFRKNEINSSVAEFKTRLRERVFVNCWHQSRDDSMAMWSLYGKSSAAVAITTTVGQLRDAIKLAKLPYAINIAKVEYVKHWRDPQLVFKPYSNVFAYKLKAYDYEKEVRVIIDRFHENEDISALPDGMSAAIPLETLLRSIVVCPEAAPWFVELVGDVVHKYGVSAPVNRSKLAFDPK, MGSDKIHHHHHHMVVLHSKGGFFLEILKVVDLKKHYGDVKAVDGISFTVERGTVFSFLGPNGAGKTTTVEILEGLRKKDSGEIYYFGERKDVLDRETKRKIGVCLQKSAFFENLTVWETLKLFRGLYGTGLDLKEVMGLFSLENIEKKMVKTLSGGQLQRLAVAVAFINDPEIVFLDEPTTGLDPQARRQIWDTIEHFKNLGKTIFLTTHYMEEAERLSDHVCIIDHGKIIAEGTPSSLISSSGLKTVVEFDCDQDVNVRYLEKKENHYVVETDAPEELIKDLLKNWNVSNIVIRKPNLEDVFLKLTGRDLRE, MGSDKIHHHHHHMWYMRWEGVSDGLKVTAGSVIQRDDLVQYTTTDDATSSGGVLRVPIACSSAGAVGNADDGTALILVTPVNGLPSSGVADTLTGGFDTEELETWRARVIERYYWTPQGGADGDYVVWAKEVPGITRAWTYRHLMGTGTVGVMIASSDLINPIPEESTETAARQHIGPLAPVAGSDLYVFRPVAHTVDFHIRVTPDTPEIRAAITAELRSFLLRDGYPQGELKVSRISEAISGANGEYSHQLLAPVDNISIAKNELAVLGTISWT, MGSDKIHHHHHHMYFITLSRQLGTKGTEIAKLVAKELHYDFYDTEAIEKKAGEMGFLDDIRKVDDKPPSPLKQLFSWQTETCLEHLYTVIYDLSRYGNAVVLGRGGNMLFRPIPHALHVRVIASHEKRVQNLLEKVYRRETAVMIMEKSDQERSSFIRFAFNRDWGDPELYDMVLNMDNMTVRSAADTILRAARLRESQCPSRDGMSPLNLMELTAKVKAALANAGFPSNYASPFVNAPGKVRLTGIVHDPREKLAAEMTALKVEGVESVENRIQIAGS, MGSDKIHHHHHHMYKKSVDLSLESVLVEIDENKKLMPSRNATVQPVALMRLGLFLPSLKRKGKDTENISIDASSELQSLELARAEGYTDIRITGPRLSMETDFKVWVGIILAFSKYGLNSSTIELPFSEFATFCGFSSKDKDKGLRTRLADSLIRLRSTTIKLASEKDRNGVVSGLLSRGKWDEKDDIMELTADESLWELYQFDRQVLLQMFIIRQLANKGTAQALYTFIESLPERPIPLSFARIKRRLMLTSPNNQQNRVINKAIDELKAVGYLDGDVVKKDGEWHLIITRRTPRPDIKAMSEALKDGE

Source: the DeepSol protein solubility set
